Experimental data reported in the supplement of paper PMC7125110.
± gives the standard error. This sample holds only a part of the variants without activity.

B1: glmS ribozyme (parent)
chain: AUAAAAGCGCCAGAACUACAGAAAUGUAGUUGACGAGGAGGAGGUUUAUCGAAUUUUCGGCGGAUGCCUCCAAA

Assays:
Conditions in all cases: with glucosamine-6-phosphate
glucosamine-6-phosphate [1] = variants of: B1; experiment: self-cleavage kobs at 640 uM GlcN6P; higher = faster cleavage; RNA array
In short: (§1)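 In situ transcription by E. coli RNA polymerase produced barcoded ribozyme variants on sequenced MiSeq chips, and a hybridised Cy3 probe tracked them at 37 °C. Glucosamine-6-phosphate was flowed in at 40 μM to 10 mM in HEPES/KCl/Mg(OAc)2 buffer. kcat and KM were taken from weighted Michaelis–Menten fits of kobs values from exponential decay fits.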

glucosamine-6-phosphate [2] = variants of: B1; experiment: self-cleavage kobs at 2500 uM GlcN6P; higher = faster cleavage; RNA array
In short: as §1

glucosamine-6-phosphate [3] = variants of: B1; experiment: self-cleavage kobs at 10000 uM GlcN6P; higher = faster cleavage; RNA array
In short: as §1

Variant	self-cleavage kobs at 640 uM GlcN6P (glucosamine-6-phosphate [1])	self-cleavage kobs at 2500 uM GlcN6P (glucosamine-6-phosphate [2])	self-cleavage kobs at 10000 uM GlcN6P (glucosamine-6-phosphate [3])
A36C G40C	< 1e-05 s⁻¹	< 1e-05 s⁻¹	< 1e-05 s⁻¹
C34G U45C G59U G62A G66A	< 1e-05 s⁻¹		
G29C G35C G38U G51U G59A	< 1e-05 s⁻¹	< 1e-05 s⁻¹	
G29U U46C G62C C71G	< 1e-05 s⁻¹	< 1e-05 s⁻¹	
C34G G41U G51C C71G	< 1e-05 s⁻¹		
U30C U49G U55C	< 1e-05 s⁻¹		
A36C G38C G60C U65A	< 1e-05 s⁻¹		
G29C G44C C71U	< 1e-05 s⁻¹		
A33U A39C A48U G59U	< 1e-05 s⁻¹		
U30A G41U A48U	< 1e-05 s⁻¹	< 1e-05 s⁻¹	
G29C G51U C61G C70A	9.9e-05 ± 3.7e-05 s⁻¹	7.11e-05 ± 2.2e-05 s⁻¹	
G32A G37U A48C G66C	< 1e-05 s⁻¹		
A33C G38C U55C C61G C71U	< 1e-05 s⁻¹	< 1e-05 s⁻¹	
U31C C67G C68G	5.49e-05 ± 1.6e-05 s⁻¹		
G29A U46A	0.000116 ± 2.5e-05 s⁻¹	0.000221 ± 4.8e-05 s⁻¹	0.000241 ± 3.6e-05 s⁻¹
G32C G51U C70A	0.000153 ± 5.2e-05 s⁻¹		7.14e-05 ± 3e-05 s⁻¹
C34G G60A G62C U69G	< 1e-05 s⁻¹		
A36C U69A	6.08e-05 ± 1.6e-05 s⁻¹	0.000182 ± 4.6e-05 s⁻¹	
U31C A42C A64G C67G	< 1e-05 s⁻¹		
A36G G37U A42C G44U	< 1e-05 s⁻¹		< 1e-05 s⁻¹
G32A G35C A39G	< 1e-05 s⁻¹	< 1e-05 s⁻¹	
G35U A39G G59U	< 1e-05 s⁻¹		
G29U G43C U56C	< 1e-05 s⁻¹		
G35A G40U G44U U45C A52U	< 1e-05 s⁻¹		
G29C A36C A39C	< 1e-05 s⁻¹		< 1e-05 s⁻¹
G35U C61G	< 1e-05 s⁻¹		< 1e-05 s⁻¹

Variant	self-cleavage kobs at 640 uM GlcN6P (glucosamine-6-phosphate [1])	self-cleavage kobs at 2500 uM GlcN6P (glucosamine-6-phosphate [2])	self-cleavage kobs at 10000 uM GlcN6P (glucosamine-6-phosphate [3])
A36G A39C A64U C71G	< 1e-05 s⁻¹	< 1e-05 s⁻¹	
A36G G38U C68G	9.46e-05 ± 3.2e-05 s⁻¹		3.1e-05 ± 1.5e-05 s⁻¹
G35C G38A C68G	0.00152 ± 0.00066 s⁻¹		
A36G U45A C61U U69G C70A	< 1e-05 s⁻¹	< 1e-05 s⁻¹	
G35C G38U	< 1e-05 s⁻¹	< 1e-05 s⁻¹	
C34A A39C G41A G66U	< 1e-05 s⁻¹	< 1e-05 s⁻¹	
C34A G35U A42C	< 1e-05 s⁻¹		
G32U A33U G35U A36C C50U	< 1e-05 s⁻¹		
U31C G44A C50A	< 1e-05 s⁻¹		
U30G A39C U55G	0.000198 ± 5.5e-05 s⁻¹	0.000726 ± 0.00014 s⁻¹	0.00144 ± 0.00047 s⁻¹
C34U G40U A53U C58U G60U C61A C68A	< 1e-05 s⁻¹		
U31A A33U U55A C58G	< 1e-05 s⁻¹	< 1e-05 s⁻¹	
G29C U31C G35U	< 1e-05 s⁻¹	< 1e-05 s⁻¹	
G35A A53C G63C	< 1e-05 s⁻¹	< 1e-05 s⁻¹	
C34A G43U U55C	< 1e-05 s⁻¹	< 1e-05 s⁻¹	
A36U C61U C71U	< 1e-05 s⁻¹		< 1e-05 s⁻¹
U30C C34G	< 1e-05 s⁻¹		< 1e-05 s⁻¹
A33G A39C G41A C50A	< 1e-05 s⁻¹		
G32U A36U G44U A48G	< 1e-05 s⁻¹	< 1e-05 s⁻¹	
A36C U57C C67U	< 1e-05 s⁻¹	< 1e-05 s⁻¹	
G29C G35A G41C G63U C68G	< 1e-05 s⁻¹		
U31G C70A	0.000129 ± 2.6e-05 s⁻¹	9.72e-05 ± 2.7e-05 s⁻¹	0.000372 ± 0.00014 s⁻¹
C34A G43U U55G U57G C61A	< 1e-05 s⁻¹		
C34U A39C A53U	< 1e-05 s⁻¹	< 1e-05 s⁻¹	
U30A G32A G35C U45C	< 1e-05 s⁻¹	< 1e-05 s⁻¹	
A33C C50A C68A	< 1e-05 s⁻¹	< 1e-05 s⁻¹	

Variant	self-cleavage kobs at 640 uM GlcN6P (glucosamine-6-phosphate [1])	self-cleavage kobs at 2500 uM GlcN6P (glucosamine-6-phosphate [2])	self-cleavage kobs at 10000 uM GlcN6P (glucosamine-6-phosphate [3])
G29C G32C A52C C68G	8.66e-05 ± 3.9e-05 s⁻¹		
U30G A52C C71G	< 1e-05 s⁻¹		
A33C G35A G44U C70U	< 1e-05 s⁻¹		
G29U C34U U47G C68U	5.56e-05 ± 2.3e-05 s⁻¹		
A33C U45C U56G G62A U65C	< 1e-05 s⁻¹		
G32U C34U A36G G51A C70G	8.6e-05 ± 3.2e-05 s⁻¹		
G32A A39C G59A C67A	< 1e-05 s⁻¹	< 1e-05 s⁻¹	
U30A U45G	0.000279 ± 6.7e-05 s⁻¹	0.000752 ± 0.00013 s⁻¹	
C34U C50G U54A	0.000235 ± 6.6e-05 s⁻¹	0.000344 ± 0.0001 s⁻¹	
U30A G43C C58U U69A	< 1e-05 s⁻¹	< 1e-05 s⁻¹	
G32C A42U G60A	< 1e-05 s⁻¹		
G32U G35U G40A U55A	< 1e-05 s⁻¹		
G29U A39C G66A	0.000154 ± 3.3e-05 s⁻¹	0.000178 ± 5.1e-05 s⁻¹	
G29U A39U G41U U65G	< 1e-05 s⁻¹	< 1e-05 s⁻¹	
A33U G35A A39G G44U C61U G62U	< 1e-05 s⁻¹	< 1e-05 s⁻¹	
G32C U56A	3.99e-05 ± 1.8e-05 s⁻¹	2.05e-05 ± 9.8e-06 s⁻¹	5.18e-05 ± 7.3e-06 s⁻¹
A36C A48U U54G G60U G63U A64G	< 1e-05 s⁻¹		
G35A G59A G62U	< 1e-05 s⁻¹		
G35A G60U C70G	< 1e-05 s⁻¹	< 1e-05 s⁻¹	
G35U A42G A48U	< 1e-05 s⁻¹		
U31G G44U G62U	< 1e-05 s⁻¹	< 1e-05 s⁻¹	
G32U G51A U57A	< 1e-05 s⁻¹	< 1e-05 s⁻¹	
A33U G37A G59A	< 1e-05 s⁻¹		
A36C G41U A53G	< 1e-05 s⁻¹		
U30C A36C G40U	< 1e-05 s⁻¹	< 1e-05 s⁻¹	
G35C G51U A64C	< 1e-05 s⁻¹	< 1e-05 s⁻¹	

Variant	self-cleavage kobs at 640 uM GlcN6P (glucosamine-6-phosphate [1])	self-cleavage kobs at 2500 uM GlcN6P (glucosamine-6-phosphate [2])	self-cleavage kobs at 10000 uM GlcN6P (glucosamine-6-phosphate [3])
U30G G43A C67A	9.35e-05 ± 3e-05 s⁻¹	0.000157 ± 5.9e-05 s⁻¹	
A33C C34G A53C U57A G66C	< 1e-05 s⁻¹		
G29U A39G A53U	0.00124 ± 0.00019 s⁻¹		
G32A G44U C67U	0.000148 ± 2.8e-05 s⁻¹	0.000244 ± 5.3e-05 s⁻¹	
U30C G38C A42U	< 1e-05 s⁻¹	< 1e-05 s⁻¹	
A33U A36C U45C	< 1e-05 s⁻¹		
G35U G38A G51U	< 1e-05 s⁻¹		
A33U G38U	< 1e-05 s⁻¹	< 1e-05 s⁻¹	< 1e-05 s⁻¹
A36C G51U A53C	< 1e-05 s⁻¹	< 1e-05 s⁻¹	< 1e-05 s⁻¹
G29A A53G C68G	7.36e-05 ± 2.4e-05 s⁻¹	7.42e-05 ± 2e-05 s⁻¹	
G35U U57C	< 1e-05 s⁻¹	< 1e-05 s⁻¹	
U31C U56A	0.00164 ± 0.00028 s⁻¹	0.00201 ± 0.00053 s⁻¹	
A33U U46C G63A	< 1e-05 s⁻¹	< 1e-05 s⁻¹	
A36C C67A	< 1e-05 s⁻¹		
C34A G59U G60A G63U	< 1e-05 s⁻¹		
G32A U69A C70G	4.23e-05 ± 1.9e-05 s⁻¹		
G29A G40U G41C	< 1e-05 s⁻¹		
C34G A48G C70U	< 1e-05 s⁻¹		
G32C C67G U69G	< 1e-05 s⁻¹		< 1e-05 s⁻¹
U30G A39C U54G	0.0002 ± 3.1e-05 s⁻¹	0.00053 ± 8.2e-05 s⁻¹	0.00136 ± 0.0002 s⁻¹
A33U G41C A52C A53U A64G U65G C70G	< 1e-05 s⁻¹		
G32A G51U C68G	0.000156 ± 5.8e-05 s⁻¹		
U31C A39U C67A	0.000787 ± 0.00025 s⁻¹	0.000712 ± 0.00021 s⁻¹	0.000846 ± 0.0002 s⁻¹
C34A A42C C61U	< 1e-05 s⁻¹	< 1e-05 s⁻¹	
U31C A53G U65G	0.000195 ± 3.6e-05 s⁻¹	0.000454 ± 7.6e-05 s⁻¹	0.000519 ± 9.8e-05 s⁻¹
C34U G38A A42G	< 1e-05 s⁻¹		

Variant	self-cleavage kobs at 640 uM GlcN6P (glucosamine-6-phosphate [1])	self-cleavage kobs at 2500 uM GlcN6P (glucosamine-6-phosphate [2])	self-cleavage kobs at 10000 uM GlcN6P (glucosamine-6-phosphate [3])
G32A G35U U57A	< 1e-05 s⁻¹		
C34A G41C C70U	< 1e-05 s⁻¹		
G29C U56A C58A G63U	< 1e-05 s⁻¹	< 1e-05 s⁻¹	
U31C G37A C70G	< 1e-05 s⁻¹		
G35U C67G C68G	6.14e-05 ± 2.2e-05 s⁻¹		
G32C G44U G51U A53U C58G	< 1e-05 s⁻¹		
U31A U69C C71G	8.22e-05 ± 1.8e-05 s⁻¹	6.01e-05 ± 1.7e-05 s⁻¹	3.9e-05 ± 1.6e-05 s⁻¹
G35U G63U U65A	< 1e-05 s⁻¹	< 1e-05 s⁻¹	
U31G C58G C70G	0.000104 ± 3.4e-05 s⁻¹		
A33C U54G A64C C70G	< 1e-05 s⁻¹	< 1e-05 s⁻¹	
A33G G59A	< 1e-05 s⁻¹		< 1e-05 s⁻¹
U30A U46G U55G	0.000157 ± 3.5e-05 s⁻¹	0.000349 ± 6.6e-05 s⁻¹	
G35C A42C C50U G51U	< 1e-05 s⁻¹		
G35A C50G C68U C70G	0.000738 ± 0.00024 s⁻¹	0.000111 ± 4.4e-05 s⁻¹	
G29U G35A U45G	< 1e-05 s⁻¹		
G32A A53G U56G	7.56e-05 ± 2.8e-05 s⁻¹	0.000272 ± 8.6e-05 s⁻¹	
U30A A39C U47C	4.7e-05 ± 1.3e-05 s⁻¹		
A36C G38U U49A	< 1e-05 s⁻¹	< 1e-05 s⁻¹	
G29U A36G A53U G62A	< 1e-05 s⁻¹	< 1e-05 s⁻¹	
A33U C34G	< 1e-05 s⁻¹	< 1e-05 s⁻¹	< 1e-05 s⁻¹
G32U C34G G41C A53U A64C U65G	< 1e-05 s⁻¹	< 1e-05 s⁻¹	
C34U G38U A42G	< 1e-05 s⁻¹	< 1e-05 s⁻¹	
U31C G38A C71U	< 1e-05 s⁻¹		
U31C C34A G59U	< 1e-05 s⁻¹	< 1e-05 s⁻¹	
